Source: patent US20210079089A1 (SURROZEN OPERATING, published 2021)

Experiments:
biotinylated-LRP6 CRD = target: T1, biotinylated-LRP6 CRD (UniProt O75581 631-1246, limits assumed, biotinylated); test: Octet BLI, biotinylated LRP6; wild type 009S-E04, not an alanine mutant
T1 construct: LRP6 has no CRD
T1 sequence (looked up): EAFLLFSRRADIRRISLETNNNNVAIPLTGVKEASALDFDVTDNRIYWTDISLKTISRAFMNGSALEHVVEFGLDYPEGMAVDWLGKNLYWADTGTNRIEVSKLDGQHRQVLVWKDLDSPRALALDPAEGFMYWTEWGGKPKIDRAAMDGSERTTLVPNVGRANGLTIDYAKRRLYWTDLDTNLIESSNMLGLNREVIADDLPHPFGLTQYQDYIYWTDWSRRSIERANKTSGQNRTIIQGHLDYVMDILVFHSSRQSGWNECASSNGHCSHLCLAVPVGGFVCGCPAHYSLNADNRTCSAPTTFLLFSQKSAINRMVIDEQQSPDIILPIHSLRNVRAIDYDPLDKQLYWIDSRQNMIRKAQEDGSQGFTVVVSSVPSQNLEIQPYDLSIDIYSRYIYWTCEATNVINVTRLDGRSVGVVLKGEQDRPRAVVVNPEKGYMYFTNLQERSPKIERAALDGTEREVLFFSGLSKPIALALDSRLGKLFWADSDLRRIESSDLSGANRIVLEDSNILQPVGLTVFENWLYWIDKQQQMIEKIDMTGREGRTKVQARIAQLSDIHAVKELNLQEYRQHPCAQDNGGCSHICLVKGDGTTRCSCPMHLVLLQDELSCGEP
Experimental: (§1) Binding kinetics of antibody fragments to LRP5 extracellular domain (LRP5 ECD) and/or LRP6 extracellular domain (LRP6 ECD) protein targets was determined by bio-layer interferometry (BLI) using Octet Red 96 (PALL ForteBio, Fremont, Calif.) instruments at 30° C., 1000 rpm with streptavidin (SA) biosensors. C-terminal biotinylated LRP ECD recombinant protein was diluted to 20 nM in the running buffer (PBS, 0.05% Tween-20, 0.5% BSA, pH 7.2) and captured to the SA biosensor until coupling length reached 0.2 nm. Following capture of the LRP5 or LRP6, the SA biosensor with captured biotinylated-LRP5 or biotinylated LRP6 was dipped into wells containing the relevant antibody fragment at […] (0, 1.37, 4.12, 12.4, 37, 111.1, 333.3, 1000 nM) in running buffer, plus a well with only running buffer as a reference channel. KD was determined by global fitting, 1:1 binding model according to manufacturer recommended settings.
One antibody fragment, 009S-E04, was selected for alanine-scanning mutagenesis of CDRs, and the respective LRP6 binding affinities of the various mutants were determined by Octet BLI as described in Example 1.

LRP6E3E4_O75581_631-1246 [1] = target: T2, LRP6E3E4_O75581_631-1246 (Homo sapiens (Human), UniProt O75581 631-1246, biotinylated in the BLI/SPR assays (C-terminal biotin acceptor peptide)); test: Octet BLI, affinity class
T2 construct: The entry holds residues 631-1246 of UniProt O75581 followed by a biotin acceptor peptide and eight His
T2 sequence: T1 sequence (looked up)
Experimental: as §1

LRP6E3E4_O75581_631-1246 [2] = target: T2, LRP6E3E4_O75581_631-1246; test: Octet BLI or BIAcore SPR
LRP6E3E4_O75581_631-1246 [3] = target: T2, LRP6E3E4_O75581_631-1246; test: co-crystal structure, column Antigen
Experimental: Structure of Lrp6E3E4:VHH/Fab complexes were determined by molecular replacement method using Phaser [Phaser crystallographic software. A. J. McCoy, R. W. Grosse-Kunstleve, P. D. Adams, M. D. Winn, L. C. Storoni, and R. J. Read. J Appl Crystallogr 40, 658-674 (2007)] with published structures Lrp6E3E4 [PDB code: 4AOP; Chen S, Bubeck D, MacDonald B T, Liang W X, Mao J H, Malinauskas T, Llorca O, Aricescu A R, Siebold C, He X, Jones E Y. Dev. Cell 21 848-61 (2011)] and a VHH or sdAb [PDB code: 6B20, chain E; Gulati S, Jin H, Masuho I, Orban T, Cai Y, Pardon E, Martemyanov K A, Kiser P D, Stewart P L, Ford C P, Steyaert J, Palczewski K. Nat Commun 91996 (2018)], followed by refinement and validation by MolProbity as implemented in Phenix [PHENIX: a comprehensive Python-based system for macromolecular structure solution. P. D. Adams, P. V. Afonine, G. Bunkoczi, V. B. Chen, I. W. Davis, N. Echols, J. J. Headd, L. W. Hung, G. J. Kapral, R. W. Grosse-Kunstleve, A. J. McCoy, N. W. Moriarty, R. Oeffner, R. J. Read, D. C. Richardson, J. S. Richardson, T. C. […]
Diffraction quality crystals of Lrp6E3E4:VHH36 (concentration=14.0 mg/mL) were obtained by grid-screen optimization in a condition containing 1.6 M ammonium sulfate and 0.1 M Tris pH 8.2. […] Structure of Lrp6E3E4:VHH36 complex was determined at a resolution of 2.70 Å, and refined to Rcryst and Rfree factors of 18.6% and 22.8%, respectively.

B1: 009S-E04 (VHH)
VHH: DVQLVESGGGLVQAGGSLRLACAGSGRIFAIYDIAWYRHPPGNQRELVAMIRPVVTEIDYADSVKGRFTISRNNAMKTVYLQMNNLKPEDTAVYYCNAKRPWGSRDEYWGQGTQVTVSS
Kd (biotinylated-LRP6 CRD): < 0.1 µM | Kd (LRP6E3E4_O75581_631-1246 [1]): < 0.5 µM | Kd (LRP6E3E4_O75581_631-1246 [2]): < 0.5 µM

B2: VHH36 (013S-D05) (VHH)
VHH: QVKLEESGGGLVQAGGSLRLSCAASGRIFSIYDMGWFRQAPGKEREFVSGIRWSGGTSYADSVKGRFTISKDNAKNTIYLQMNNLKAEDTAVYYCGSRGYWGQGTLVTVSS
modifications: Gln1 modified as pyroglutamate (in the crystal structure)
notes: Construct of the crystal structure, with C-terminal GSGSG-His6; the complex was treated with carboxypeptidase A and B before crystallisation
binding result (LRP6E3E4_O75581_631-1246 [3]): binds
